Source: PMC7748142, “ATM inhibition enhances Auranofin-induced oxidative stress and cell death in lung cell lines” (PLoS ONE, 2020)

B1: peroxiredoxin 3 (PRDX3), murine lung fibroblasts (enzyme, mouse (endogenous in MLFs), UniProt P20108 63-257, looked up)
chain: TPAVTQHAPYFKGTAVVNGEFKELSLDDFKGKYLVLFFYPLDFTFVCPTEIVAFSDKANEFHDVNCEVVAVSVDSHFSHLAWINTPRKNGGLGHMNITLLSDITKQISRDYGVLLESAGIALRGLFIIDPNGVVKHLSVNDLPVGRSVEETLRLVKAFQFVETHGEVCPANWTPESPTIKPSPTASKEYFEKVHQ
notes: peroxiredoxin 3, endogenous in murine lung fibroblasts, detected by anti-PRDX3 blot; source: endogenous, murine lung fibroblast (MLF) lysate
B2: peroxiredoxin 1 (PRDX1) (enzyme, human (endogenous in HEK 293T and A549), UniProt Q06830 1-199, looked up)
chain: MSSGNAKIGHPAPNFKATAVMPDGQFKDISLSDYKGKYVVFFFYPLDFTFVCPTEIIAFSDRAEEFKKLNCQVIGASVDSHFCHLAWVNTPKKQGGLGPMNIPLVSDPKRTIAQDYGVLKADEGISFRGLFIIDDKGILRQITVNDLPVGRSVDETLRLVQAFQFTDKHGEVCPAGWKPGSDTIKPDVQKSKEYFSKQK
notes: peroxiredoxin 1, endogenous in human cell lines, detected by anti-PRDX1 blot; source: endogenous, HEK 293T lysate (trapping); endogenous, A549 lysate (dimer analysis)
B3: peroxiredoxin 3 (PRDX3), A549 cells (enzyme, human (endogenous in A549), UniProt P30048 62-256, looked up)
chain: APAVTQHAPYFKGTAVVNGEFKDLSLDDFKGKYLVLFFYPLDFTFVCPTEIVAFSDKANEFHDVNCEVVAVSVDSHFSHLAWINTPRKNGGLGHMNIALLSDLTKQISRDYGVLLEGSGLALRGLFIIDPNGVIKHLSVNDLPVGRSVEETLRLVKAFQYVETHGEVCPANWTPDSPTIKPSPAASKEYFQKVNQ
notes: peroxiredoxin 3, endogenous in A549 cells, detected by anti-PRDX3 blot; source: endogenous, A549 lysate

Biological target: the molecule itself
Assay: non-reducing SDS-PAGE with Western blot; A549 or MLF cells treated with Auranofin (A549: 10 uM, MLF: 2 uM) alone or with KU55933 (10 uM, 1 h pre-treatment); lysed in CHAPS buffer with 100 mM NEM; boiled in non-reducing sample buffer; disulfide-linked dimers

Stoichiometry N, 2:
B1
B2
B3
